This is an account of results in paper PMC3792054, “A Remote Palm Domain Residue of RB69 DNA Polymerase Is Critical for Enzyme Activity and Influences the Conformation of the Active Site”.

Numbering of substitutions follows the chain as printed.

The target in data set [1] is T1, RB69 PolY567A/D714A Exo- (bacteriophage RB69, UniProt Q38087 1-903, D222A;D327A;Y567A;D714A).
T1 sequence: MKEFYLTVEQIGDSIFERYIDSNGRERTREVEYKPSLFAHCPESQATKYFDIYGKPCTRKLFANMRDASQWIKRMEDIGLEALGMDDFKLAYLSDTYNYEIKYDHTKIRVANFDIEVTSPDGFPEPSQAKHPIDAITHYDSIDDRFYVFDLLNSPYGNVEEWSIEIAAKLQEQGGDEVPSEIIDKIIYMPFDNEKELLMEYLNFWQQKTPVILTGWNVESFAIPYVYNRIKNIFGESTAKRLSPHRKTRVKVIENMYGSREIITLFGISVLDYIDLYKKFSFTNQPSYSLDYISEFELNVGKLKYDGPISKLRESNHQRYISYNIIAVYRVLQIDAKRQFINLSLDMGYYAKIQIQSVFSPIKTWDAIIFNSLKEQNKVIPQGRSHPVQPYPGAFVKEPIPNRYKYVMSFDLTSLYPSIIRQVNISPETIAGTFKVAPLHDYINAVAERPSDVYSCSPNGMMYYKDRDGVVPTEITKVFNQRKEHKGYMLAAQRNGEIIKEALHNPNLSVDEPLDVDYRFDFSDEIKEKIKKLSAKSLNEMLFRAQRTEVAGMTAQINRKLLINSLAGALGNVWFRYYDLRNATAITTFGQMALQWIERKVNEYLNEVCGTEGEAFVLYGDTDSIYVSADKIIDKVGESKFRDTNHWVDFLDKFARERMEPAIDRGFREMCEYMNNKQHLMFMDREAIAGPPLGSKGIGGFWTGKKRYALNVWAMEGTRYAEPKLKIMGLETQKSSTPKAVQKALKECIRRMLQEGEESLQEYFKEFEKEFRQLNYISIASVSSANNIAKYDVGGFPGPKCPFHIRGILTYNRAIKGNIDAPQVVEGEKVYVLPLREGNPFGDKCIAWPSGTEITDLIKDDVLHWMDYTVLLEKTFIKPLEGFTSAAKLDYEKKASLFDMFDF
In words: X-ray crystallography; dGpnpp, Ca2+, Na+; ternary complex I, 2.30 A. The following applies: protein: recombinant; template 5' overhang 4 nt and 3' overhang 1 nt.

Data set [2] addresses T2, RB69 Pol+Exo- (bacteriophage RB69, UniProt Q38087 1-903, D222A;D327A).
T2 sequence: T1 sequence with A567Y, A714D
In words: EMSA; binds tighter than Pol+Exo+; value in Table 2/Figure 2E not in material; EMSA: 50 nM DNA, 7.5-500 nM Exo+ or 2.5-400 nM Exo- polymerase, native 6% PAGE; buffer, pH and temperature as in ref. 16. Particulars: protein: recombinant; label: 5'-32P on primer (20-mer); 5' overhang 6 nt on template; other end blunt. In general terms: Mobility shift assays separate free from complexed probe on a gel.

The target in data set [3] is T3, RB69 DNA polymerase Pol+Exo+ (wild type gp43) (bacteriophage RB69, UniProt Q38087 1-903).
T3 sequence: T1 sequence with A222D, A327D, A567Y, A714D
In words: EMSA; apparent Kd; EMSA: 50 nM DNA, 7.5-500 nM Exo+ or 2.5-400 nM Exo- polymerase, native 6% PAGE; buffer, pH and temperature as in ref. 16. Particulars: protein: recombinant; label: 5'-32P on primer (20-mer); 5' overhang 6 nt on template; other end blunt.

For data set [4], the target named is T4, RB69 PolD714A Exo+ (bacteriophage RB69, UniProt Q38087 1-903, D714A).
T4 sequence: T1 sequence with A222D, A327D, A567Y
The description is as above. The following applies: protein: recombinant; label: 5'-32P on primer (20-mer); 5' overhang 6 nt on template; other end blunt.

In data set [5] the target is T5, RB69 PolD714A Exo- (bacteriophage RB69, UniProt Q38087 1-903, D222A;D327A;D714A).
T5 sequence: T1 sequence with A567Y
Description: EMSA; almost same affinity as Pol+Exo-; value in Table 2/Figure 2E not in material; EMSA: 50 nM DNA, 7.5-500 nM Exo+ or 2.5-400 nM Exo- polymerase, native 6% PAGE; buffer, pH and temperature as in ref. 16. The following applies: protein: recombinant; label: 5'-32P on primer (20-mer); 5' overhang 6 nt on template; other end blunt.

B1: 13/18-mer primer-template (crystal) (dsDNA)
DNA 1: GCGGACTGCTTAC
DNA 2: TCACGTAAGCAGTCCGCG
For the molecule B1, the binding result in data set [1] was “binds”.

B2: 20*/26-mer primer-template (dsDNA)
DNA 1: AGCTACGCGGCTGTCATAAG
DNA 2: TTGCGTCTTATGACAGCCGCGTAGCT
As for B2, the binding result in data set [2] and in data set [5] was “binds” each time. The figures for the Kd in data set [3] and in data set [4] were 176 nM and 141 nM, respectively.
